Reference: patent publication US20070178531A1 (BIOCHECK, published 2007)
Positions count from the first letter of the chain named.

B1: rabbit monoclonal anti-mouse/human Id3, clone #BCH-4/#16-1 (antibody, V domains shown)
VH: QSVEESGGRLVTPGTPLTLTCTASGFSLSSYYIHWVRQAPGKALEWIGYISDGGTTYYASWAKGRFTISKTSSTTVDLKMTSLTTEDTATYFCARQGFNIWGPGTLVTVSL
VL: AVLTQTPSPVSAAVGGTVTISCQSSQSVYNNNWLSWFQQKSGQPPKLLIYETSKLESGVPSRFKGSGSGTQFTLTIIDVQCDDAATYYCLGGYWTTSDNNIFGGGTEVVVK
notes: Rabbit IgG from a rabbit hybridoma; also called m/h Id3 MoAb 16-1
B2: rabbit monoclonal anti-mouse/human Id3, clone #BCH-4/#6-1 (antibody, V domains shown)
VH: B1 VH with S30N, Y31V, A43G, G54D, T56A, Y57R, S60T, D77N
VL: B1 VL with T19S, Y29W, S41P, I77S, I101V
notes: Rabbit IgG from a rabbit hybridoma; also called m/h Id3 MoAb 6-1
B3: rabbit monoclonal anti-mouse/human Id3, clone #BCH-4/#17-3 (antibody, V domains shown)
VH: B1 VH with S30N, Y31V, A43G, G54D, T56A, Y57R, S60T, D77N
VL: B1 VL with T19S, Y29W, S41P, I77S, I101V
notes: Rabbit IgG from a rabbit hybridoma; also called m/h Id3 MoAb 17-3; BCH-3/#17-3
B4: rabbit monoclonal anti-mouse/human Id3, clone #BCH-4/#42-1 (antibody, V domains shown)
VH: B1 VH
VL: B1 VL with T95S
notes: Rabbit IgG from a rabbit hybridoma; also called m/h Id3 MoAb 42-1
B5: rabbit monoclonal anti-human Id3, clone #BCH-4/#3-3 (antibody, V domains shown)
VH: QSVEESGGRLVTPGTPLTLTCTVSGIDLSSYAMSWVRQAPGKGLEWIGVIFPSNNVYYASWAKGRFTISKTSTTVDLKITSPTTEDTATYFCASMGAFDSWGPGTLVTVSS
VL: QVLTQTPSPVSAAVGGTVTINCQASQSIYNDNDLAWFQQKPGQPPKLLIYDASTLTSGVPSRFKGSGSGTQFTLTISDLDCDDAATYYCAARYSGNIYGFGGGTEVVVK
notes: Rabbit IgG from a rabbit hybridoma; also called h Id3 MoAb 3-3

Target: T1, Human Id3: Histidine (human, UniProt Q02535 1-119 at identity 1.00))
T1 construct: Fusion protein made in E. coli from vector pGW07; also called h-Id3: His; Human Id3 (coated wells); not shown: His tag
T1 chain: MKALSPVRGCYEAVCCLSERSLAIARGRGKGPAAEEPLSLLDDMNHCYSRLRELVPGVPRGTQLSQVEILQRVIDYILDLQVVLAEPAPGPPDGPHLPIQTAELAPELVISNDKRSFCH
Test: ELISA, Ab 0.005 µg/ml
Protocol: (§1) The rabbit monoclonal anti-human Id3 (clone #3-3) and the rabbit monoclonal anti-mouse/human Id3 (clones #6-1, 16-1, 17-3, and 42-1) produced in Example 6 were tested reactivity against the following antigens: mouse Id1:His, human Id1:His, mouse Id2:His, human Id2:His, mouse Id3:His, human Id3:His, mouse Id4:His, human Id4:His and GST.
(§2) 1. Microtiter wells (prepared in accordance with Example 6) were coated (0.1 μg/well) with mouse Id1:His, human Id1:His, human Id2:His, human Id3:His, and 1.0 μg/well with GST. [0155] 2. Antibody Diluent: 0.25% (w/v) BSA in 0.015M KPO₄ Buffer, 0.85% (w/v) NaCl, 0.1% (w/v) NaN₃, pH=7.40 [0156] 3. Rabbit monoclonal anti-human Id3 (clone #3-3) prepared in Example 7 was diluted to […] with the antibody diluent. […] 4. Rabbit monoclonal anti-mouse/human Id3 (clones #6-1, 16-1, 17-3, 42-1) prepared in Example 7 was diluted to 0.005, 0.010, 0.025, 0.05, 0.10, 0.25, and 0.50 μg/ml with the antibody diluent. […] 5. Conjugate Diluent: 50% (v/v) which consists of an aqueous solution containing Fetal Bovine Serum in 0.05 M Tris, 1% (v/v) Proclin-300, pH 7.6. [0159] 6. Conjugate: Goat anti-rabbit IgG (H+L)-HRP conjugate. [0160] 7. TMB reagent. […] 8. Stop solution (1 N HCI). Method
(§3) 1. Dispense 100 μL of antibody diluent, diluted rabbit monoclonal human Id3, and mouse/human Id3 hybridoma supernatants into appropriate wells. […] 2. Incubate at room temperature with mechanical shaking at 750 rpm for 90 minutes. [0165] 3. Remove the incubation mixture by flicking plate content into an appropriate waste container followed by rinsing the wells 5 times with distilled water. [0166] 4. Strike the wells sharply onto absorbent paper or paper towels to remove all residual water droplets. [0167] 5. Dispense 100 μL of 1:50,000 Goat Anti-Rabbit IgG-HRP Conjugate Reagent into each well. Gently mix for 5 seconds. [0168] 6. Incubate at room temperature with mechanical shaking at 750 rpm for 90 minutes. [0169] 7. Repeat procedures 3 and 4. [0170] 8. Dispense 100 μL of TMB Reagent into each well. Gently mix for 5 seconds. [0171] 9. Incubate at room temperature with mechanical shaking at 750 rpm for 20 minutes. […] 10.

Compared with B1, B2 is higher in A450: 0.228 A450 for the first, 0.275 A450 for the second.

Going from B3 to B4, the A450 rises from 0.33 A450 to 0.382 A450.

Target: T2, Human Id1: Histidine (human, UniProt P41134 1-155, limits assumed)
T2 construct: Fusion protein made in E. coli from vector pGW07; also called h-Id1: his; not shown: His tag
T2 sequence (looked up): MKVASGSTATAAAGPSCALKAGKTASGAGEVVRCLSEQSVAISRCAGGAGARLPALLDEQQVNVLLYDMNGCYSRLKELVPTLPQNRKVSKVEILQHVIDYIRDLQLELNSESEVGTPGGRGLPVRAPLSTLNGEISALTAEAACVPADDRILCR
Test: ELISA, Ab 0.005 µg/ml
Protocol: as §1, §2, §3

First: B5
Second: B1
The A450 of the first is higher: 0.047 A450 for the first, 0.042 A450 for the second.

B2 and B3 are the same in A450: 0.044 A450 for the first, 0.044 A450 for the second.

Binder B4 has an A450 of 0.046 A450.

Target: T3, Mouse Id3: Histidine (mouse, UniProt P41133 1-119)
T3 construct: Fusion protein made in E. coli from vector pGW07; also called m-Id3: His; Mouse Id3 (coated wells); not shown: His tag
T3 sequence: T1 chain with G31S, A33S, A34T, A105T, N112K
Test: ELISA, Ab 0.005 µg/ml
Protocol: as §1, §2, §3

Compared with B1, B2 is higher in A450: 0.24 A450 for the first, 0.312 A450 for the second.

First: B3
Second: B4
The A450 of the first is lower: 0.39 A450 for the first, 0.437 A450 for the second.

Target: T4, Mouse Id2: Histidine (mouse, UniProt P41136 1-134, limits assumed)
T4 construct: Fusion protein made in E. coli from vector pGW07; also called m-Id2: His; not shown: His tag
T4 sequence (looked up): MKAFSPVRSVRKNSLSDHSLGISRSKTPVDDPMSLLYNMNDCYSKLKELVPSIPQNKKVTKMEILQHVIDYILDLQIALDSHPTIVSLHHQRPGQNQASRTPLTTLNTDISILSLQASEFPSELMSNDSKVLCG
Test: ELISA, Ab 0.100 µg/ml

First: B5
Second: B1
The A450 of the first is lower: 0.05 A450 for the first, 0.055 A450 for the second.

Compared with B2, B3 is higher in A450: 0.055 A450 for the first, 0.057 A450 for the second.

In the case of B4, the A450 is reported as 0.058 A450.

Target: T5, glutathione S-transferase (GST) (UniProt P08515 1-218 = GST)
T5 construct: also called carrier protein GST
T5 sequence (P08515 whole entry): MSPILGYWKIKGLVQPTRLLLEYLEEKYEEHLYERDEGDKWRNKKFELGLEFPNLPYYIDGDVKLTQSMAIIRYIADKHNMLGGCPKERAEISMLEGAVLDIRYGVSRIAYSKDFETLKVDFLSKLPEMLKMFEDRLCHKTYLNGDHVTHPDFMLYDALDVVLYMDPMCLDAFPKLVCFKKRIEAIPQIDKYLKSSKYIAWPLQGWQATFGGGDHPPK
Test: ELISA, Ab 0.025 µg/ml

B5 and B1 are the same in A450: 0.048 A450 for the first, 0.048 A450 for the second.

First: B2
Second: B3
The A450 of the first is higher: 0.049 A450 for the first, 0.045 A450 for the second.

In the case of B4, the A450 is reported as 0.045 A450.

Target: T1, Human Id3: Histidine
Test: ELISA, Ab 0.025 µg/ml
Protocol: as §1, §2, §3

First: B1
Second: B2
The A450 of the first is lower: 0.802 A450 for the first, 0.974 A450 for the second.

First: B3
Second: B4
The A450 of the first is lower: 1.27 A450 for the first, 1.44 A450 for the second.

Target: T2, Human Id1: Histidine
Test: ELISA, Ab 0.025 µg/ml
Protocol: as §1, §2, §3

Compared with B5, B1 is lower in A450: 0.049 A450 for the first, 0.046 A450 for the second.

Compared with B2, B3 is lower in A450: 0.048 A450 for the first, 0.047 A450 for the second.

B4 showed an A450 of 0.043 A450.

Target: T3, Mouse Id3: Histidine
Test: ELISA, Ab 0.025 µg/ml
Protocol: as §1, §2, §3

Compared with B1, B2 is higher in A450: 0.953 A450 for the first, 1.13 A450 for the second.

First: B3
Second: B4
The A450 of the first is lower: 1.4 A450 for the first, 1.58 A450 for the second.

Target: T6, Mouse Id1: Histidine (mouse, UniProt P20067-2 1-148, limits assumed)
T6 construct: Fusion protein made in E. coli from vector pGW07; also called m-Id1-His; not shown: His tag
T6 sequence (looked up): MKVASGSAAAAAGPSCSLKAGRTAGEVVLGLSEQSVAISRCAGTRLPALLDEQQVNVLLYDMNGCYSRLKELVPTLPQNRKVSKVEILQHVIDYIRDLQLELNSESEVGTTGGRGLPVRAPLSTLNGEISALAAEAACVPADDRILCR
Test: ELISA, Ab 0.025 µg/ml
Protocol: as §1, §2, §3

B5 and B1 are the same in A450: 0.044 A450 for the first, 0.044 A450 for the second.

Going from B2 to B3, the A450 falls from 0.046 A450 to 0.045 A450.

Binder B4 has an A450 of 0.045 A450.

Target: T4, Mouse Id2: Histidine
Test: ELISA, Ab 0.025 µg/ml
Protocol: as §1, §2, §3

Compared with B5, B1 is higher in A450: 0.048 A450 for the first, 0.051 A450 for the second.

First: B2
Second: B3
The A450 of the first is lower: 0.048 A450 for the first, 0.05 A450 for the second.

Work on B4 yielded an A450 of 0.052 A450.

Target: T7, Human Id2: Histidine (human, UniProt Q02363 1-134, limits assumed)
T7 construct: Fusion protein made in E. coli from vector pGW07; also called h-Id2: His; not shown: His tag
T7 sequence (looked up): T4 sequence (looked up) with T60S, V131A
Test: ELISA, Ab 0.025 µg/ml
Protocol: as §1, §2, §3

Compared with B5, B1 is higher in A450: 0.044 A450 for the first, 0.045 A450 for the second.

Going from B2 to B3, the A450 rises from 0.045 A450 to 0.054 A450.

With B4 the A450 was 0.071 A450.
